Laboratory results from the Human Domainome abundance scans (Beltran et al. 2025).
± gives the uncertainty stated by the source.

B1: Neutrophil cytosol factor 2, residues 456 to 514; numbered along this chain, P19878 (parent)
chain: LKKGSQVEALFSYEATQPEDLEFQEGDIILVLSKVNEEWLEGECKGKVGIFPKVFVEDC

Variants of: B1
Assay: abundance fitness (aPCA) (normalised: wild type 0, dead -1); higher = more abundant; growth selection in yeast, the domain comes from the species named
Details: Homo sapiens

Variant | abundance fitness
LKKGSQVEALFSYEATQPEDLEFQEGDIILVLSKVGEEWLEGECKGKVGIFPKVFVEDC [N36G] | -0.103 ± 0.094
LKKGSQVEALFSYEATQPEDLEFQEGDIILVLSKVNEEWLEEECKGKVGIFPKVFVEDC [G42E] | -0.237 ± 0.21
LKKGSQVEALFSYEATQPEDLEFQEGDIILVLSKVNEEYLEGECKGKVGIFPKVFVEDC [W39Y] | -0.321 ± 0.1
LKKGSQVEALFSYEATQPEDLEFQEGDIILVLSKVNEEWLEGECKGKVGIFPKVFVCDC [E57C] | -0.15 ± 0.18
LKKGSQVEALFSYEATQPEDLEFQEGDIILVLSKVNEEWLEGECKGKVGIFPKVRVEDC [F55R] | -0.521 ± 0.13
LKKGSVVEALFSYEATQPEDLEFQEGDIILVLSKVNEEWLEGECKGKVGIFPKVFVEDC [Q6V] | 0.538 ± 0.12
LKKGSQVEALFSYEATQPEDLEFQEGDIILVLSKVNEEWLEGECKGKVGIFPKVFFEDC [V56F] | -0.255 ± 0.11
LKKGSQVEALFSYEATQPDDLEFQEGDIILVLSKVNEEWLEGECKGKVGIFPKVFVEDC [E19D] | -0.501 ± 0.2
LKKGSQVEALFSYEATQPEDLEFQEGDIILVLSKVNEEWLEGECKGKVGIFPKVFDEDC [V56D] | -0.412 ± 0.16
LKKGSQVEALFSYEATQPEDLEFQEGDIILVLSKVNEEWLEGECKRKVGIFPKVFVEDC [G46R] | -0.392 ± 0.23
LKKGSQVEALFSYEHTQPEDLEFQEGDIILVLSKVNEEWLEGECKGKVGIFPKVFVEDC [A15H] | -0.954 ± 0.27
LKKGSQVEALFSYEPTQPEDLEFQEGDIILVLSKVNEEWLEGECKGKVGIFPKVFVEDC [A15P] | -0.005 ± 0.15
LKKGSQVEALFSYEATQPEDLEFQEGDIILVLSKVNEEWLEGECKGKVGIFWKVFVEDC [P52W] | -0.953 ± 0.43
LKKGSQVEALFSLEATQPEDLEFQEGDIILVLSKVNEEWLEGECKGKVGIFPKVFVEDC [Y13L] | -0.573 ± 0.11
LKKGSQVEALFSYEATQPEYLEFQEGDIILVLSKVNEEWLEGECKGKVGIFPKVFVEDC [D20Y] | 0.142 ± 0.073
LKKGSQVEALFSYEATQPEDLEFQEGHIILVLSKVNEEWLEGECKGKVGIFPKVFVEDC [D27H] | -0.488 ± 0.18
LKKGSQVEALFSYEATQPEDLEFQEGDIILVLSKSNEEWLEGECKGKVGIFPKVFVEDC [V35S] | -0.459 ± 0.1
LKKGSQVEALFSYEATQPEDLEFQEGDIILVLSKVNEEWLEGVCKGKVGIFPKVFVEDC [E43V] | -0.654 ± 0.15
LKKGSQVEALISYEATQPEDLEFQEGDIILVLSKVNEEWLEGECKGKVGIFPKVFVEDC [F11I] | -0.772 ± 0.47
LKKGSQVEALFSFEATQPEDLEFQEGDIILVLSKVNEEWLEGECKGKVGIFPKVFVEDC [Y13F] | -0.391 ± 0.12
LKKGSQVEALFSYEATQPEDLEFQEGDIILVLSKVNEEWLEGECKGKVGIFPKVEVEDC [F55E] | -0.821 ± 0.39
LKKGSCVEALFSYEATQPEDLEFQEGDIILVLSKVNEEWLEGECKGKVGIFPKVFVEDC [Q6C] | -0.337 ± 0.3
LKKGSQVEALFSYEATQPENLEFQEGDIILVLSKVNEEWLEGECKGKVGIFPKVFVEDC [D20N] | -0.703 ± 0.16

Variant | abundance fitness
LKKGSQVEALFSYEATQPEDLEFQEGDIILRLSKVNEEWLEGECKGKVGIFPKVFVEDC [V31R] | -0.581 ± 0.16
LKKGSQVEALFSYEATQPEDLEFQEGDTILVLSKVNEEWLEGECKGKVGIFPKVFVEDC [I28T] | 0.163 ± 0.11
LKKGSQVEALFSYEATQPEDLEFQEGDIILVLSKVNEEWLECECKGKVGIFPKVFVEDC [G42C] | -0.782 ± 0.15
LKKGSQVEALFSYEATQPEDHEFQEGDIILVLSKVNEEWLEGECKGKVGIFPKVFVEDC [L21H] | -0.483 ± 0.19
LKKGSQVEALFSYAATQPEDLEFQEGDIILVLSKVNEEWLEGECKGKVGIFPKVFVEDC [E14A] | 0.059 ± 0.12
LKKGSQVEALFSYEATQPEDLEFQEGDIILVLSKVNEEWLEGFCKGKVGIFPKVFVEDC [E43F] | -0.324 ± 0.1
LKKGSQVEALFSYEATQPEDLEFQEGDSILVLSKVNEEWLEGECKGKVGIFPKVFVEDC [I28S] | 0.096 ± 0.072
LKKGSQVKALFSYEATQPEDLEFQEGDIILVLSKVNEEWLEGECKGKVGIFPKVFVEDC [E8K] | 1.17 ± 0.17
LKKGSQVEALFSYEATQPEDLEFQEGDRILVLSKVNEEWLEGECKGKVGIFPKVFVEDC [I28R] | 0.338 ± 0.075
LKKGSQVEALFSYIATQPEDLEFQEGDIILVLSKVNEEWLEGECKGKVGIFPKVFVEDC [E14I] | -0.304 ± 0.13
LKKGSQVEALFSYEATQPEDLEFQTGDIILVLSKVNEEWLEGECKGKVGIFPKVFVEDC [E25T] | 0.035 ± 0.12
LKKGSQVEALFSYEATQPEDLEFQEGDIILVLSKVNWEWLEGECKGKVGIFPKVFVEDC [E37W] | -0.279 ± 0.35
LKKGSQVEALFSYEATQPEDLLFQEGDIILVLSKVNEEWLEGECKGKVGIFPKVFVEDC [E22L] | -0.256 ± 0.13
LKKGSQVEALFSYEATQPEDLEFQEGDIILVLSKTNEEWLEGECKGKVGIFPKVFVEDC [V35T] | -0.808 ± 0.2
LKKGSQVEALFSYEATQPEDLEFQEGDIILVLSKVNEEWLEGECKGKFGIFPKVFVEDC [V48F] | -0.505 ± 0.15
LKKGSQVEALFSYEATQWEDLEFQEGDIILVLSKVNEEWLEGECKGKVGIFPKVFVEDC [P18W] | -0.711 ± 0.24
LKKGSQVEALFSYEATQPEDLEFQEGDIILVLSKVNEEWLEGECKGKTGIFPKVFVEDC [V48T] | -0.031 ± 0.12
LKKGSQVEALFSYEATQPEDLEFQEGDIILVLSKVNEEWLEGECKGKVGIFPIVFVEDC [K53I] | -0.865 ± 0.21
LKKGSQVEALFSYEACQPEDLEFQEGDIILVLSKVNEEWLEGECKGKVGIFPKVFVEDC [T16C] | -0.426 ± 0.14
LKKGSQVEALFSYEATQPEDLEFQEGDIILVLSKVNEEWLEGECKGWVGIFPKVFVEDC [K47W] | -0.416 ± 0.24
LKKGSQVEALFSYEATQPEDLEFQEGDIILVLSKVNEEWLEGECKGLVGIFPKVFVEDC [K47L] | -0.361 ± 0.094
LKKGSQVEALFLYEATQPEDLEFQEGDIILVLSKVNEEWLEGECKGKVGIFPKVFVEDC [S12L] | -0.086 ± 0.1
